The nature of this series: soluble on expression in E. coli; label from the status in PepcDB or PDB records.
Regarding “MGSDKIHHHHHHMSWSSAIFTGAVVHQRHRPKKHSLRYQVFCLLVDLDELPAIDKSLWLLGYNRRAILRIDDRDHGLGIPGGLKAWVANHVERAGLNTEGMKVSMLCYPRMFGYVFNPLTLYYCYGPSGTLLALLYEVENTFHERHTYVIPASVEEDGAIRHACAKQMYVSPFMPMECLYRFKIVPPGETVTVAINEADEQGPLLYASFCGKRRTLDDRALAKVLVRYPLMTLKVMGAIHWEALKLWVKGVPLHRHRKAQNPIASSIIPPEAANARSPS”, the “soluble on expression in E. coli” value is recorded as “not soluble”. Then “MGSSHHHHHHSSGLVPRGSHMKMSFRWYGKKDPVTLEEIKAIPGMQGIVTAVYDVPVGQAWPLENILELKKMVEEAGLEITVIESIPVHEDIKQGKPNRDALIENYKTSIRNVGAAGIPVVCYNFMPVFDWTRSDLHHPLPDGSTSLAFLKSDLAGVDPVADDLNLPGWDSSYSKEEMKAIIENYRQNISEEDLWANLEYFIKAILPTAEEAGVKMAIHPDDPPYGIFGLPRIITGQEAVERFLNLYDSEHNGITMCVGSYASDPKNDVLAMTEYALKRNRINFMHTRNVTAGAWGFQETAHLSQAGDIDMNAVVKLLVDYDWQGSLRPDHGRRIWGDQTKTPGYGLYDRALGATYFNGLYEANMRAAGKTPDFGIKAKTVGTKEG”, with “soluble”. The same measure for “MSLKQERQEKIEVLKEFKDDGATKFSSYYFDLKKNQILSSGSLTTSWRVIDFSEVLSYQVNRNGHLEQKHHGIARAVTGGIMAGGVGAIVGTTTGENTDYIDHLGLVINLSDGTNFEVKFLKTKTKTNSFTVKTAEGELRSLISIVQSGMNKAQEKAEQEQTKANTIKIESNADPAEEIRKFKKMADEGIISNEEFEAKKKQLLNLQEGHHHHHH”: “soluble”. With “MAHHHHHHMQPMVLPYVDRKPPISKVMDARVLVWRESERMLRNGEGAAECSYAQKLQVLRSQQLADARKYMDTSAAMRSVKPVLATSSVDADDDDEFCRKRSRESEGPSVDEIRRFEGKLGETLALELTLWSLRRGSHGGVRSQRYTTALHALQDTQKLLRKTLQQMEEINALRFLEQQQFLKVNSEKARLLHVRLRNVRALENILRGNGKRRGSTLLATLE”, the “soluble on expression in E. coli” value is on record as “not soluble”. As for “MGSDKIHHHHHHMEFMKQLGSCCQYCAYPLSDDTYLVCGQCVRKRPSFDSAYIAYRFEEPLRSLIHQFKYHNGLYLASFLKQLLLNALPKNALKPDCLIPVPMHPKRLKRRGFNQAGVLTRLLARQLNIPYDLYYCQKIINTASQANLDGEQRRKNLRHAFYVSAVTYEHVMIVDDLLTTGSTANEMAHTLKNAGVKRVDICCCARAVTKN”, the “soluble on expression in E. coli” value was “not soluble”. The same measure for “MSSRKQGSQPRGQQSAEEENFKKPTRSNMQRSKMRGASSGKKTAGPQQKNLEPALPGRWGGRSAENPPSGSVRKTRKNKQKTPGNGDGGSTSEAPQPPRKKRARADPTVESEEAFKNRMEVKVKIPEELKPWLVEDWDLVTRQKQLFQLPAKKNVDAILEEYANCKKSQGNVDNKEYAVNEVVAGIKEYFNVMLGTQLLYKFERPQYAEILLAHPDAPMSQVYGAPHLLRLFVRIGAMLAYTPLDEKSLALLLGYLHDFLKYLAKNSASLFTASDYKVASAEYHRKALLEHHHHHH”: “not soluble”; for “MASPENVILVHEISKLKTKEELWNPYEWYQFMRDNHPVHYDDEQDVWNVFLYDDVNRVLSDYSLFSSRRERRQFAIPPLETRININSTDPPEHRNVRSIVSKAFTPRSLEQWKPRIQSIANELVKDIENCSEVDIVEQFAAPLPVTVISDLLGVPTTDRKKIKAWSDILFMPYSKEKFNDLDAEKGIALNEFKAYLLPIVQEKRYHLTDDIISDLIRAEYEGERLTDEEIVTFSLGLLAAGNETTTNLIINSFYCFLVDSPATYKEVREKPKLISKAVEEVLRYRFPVTLARRITEDTNIFGPLMKKDQMVVAWVSAANLDEKKFSQASKFNIHRIGNEKHLTFGKGPHFCLGAPLARLEAEIALTTFINAFEKIALSPSFNIEQCILENEQTLKFLPIRLKPQ”: “not soluble”; for “MDLSRINTWKSKQLKSFLSSKDAFKADINGHSVLYYAIADNNVRLVCTLLNAGALKNLLDNEFPLHQAATLEDTKIVKILLFSGMDDSQFDDKGNTALYYAVDSGNMQTVKLFVKKNWRLMFYGKTGWKTSFYHAVMLNDVSIVSYFLSEIPSPFDLAILLSCIHTTIKNGHVDMMILLLDYMTSTNTNSLLFIPDIKLAIDNKDIEMLQALFKYDINIYSVNLENVLLDDAEIAKMIIEKHVEYKSDSYTKDLDDVKNNKLDEIISKNEELRLMYVNYVRKNY”: “not soluble”. The same measure for “MTALPLSAVTVVSVCYNSDRLIRDLVTAIPDETPIILVDNGHTNTFADLPPHRNVIIVKLDHNLGFGRGCNAGADVAQTPWILFLNPDARLNPGAIEGLLQAAAQYPSAIAFNPRIYNEDGSPYFKRRSWLLPRQHYMKKGWPSADAVVPVLSGAALFVSKKSFDYIGGFDPSIFMYHEDDDLSLRLSALGELRFVRNSTVVHFAGYSSGRSPEIARFKAYHMAQSKIYAGQKHHRPFAKTSTLLQGCLLLLSPHVFFSARRRAKALGFLHGALAKIWSELLNAASTSSQKKT”: “soluble”; for “MKKYVCTVCGYEYDPAEGDPDNGVKPGTSFDDLPADWVCPVCGAPKSEFEAA”: “soluble”; for “MYNNEPGAQSDPTLGYTFQNDFLALSQAFSLPEIDYTDISQREQLAAAIKRWPLLAEFAQPHSLRKP”: “not soluble”.

With “MGSDKIHHHHHHMKGLDYCRQKAEESRSSFLSGFRFLTQEKQDAVTVLYAFCRELDDVVDECSNPDVAQATLNWWRGDLDNAFGGAMPEHPVNQALRQVKETFKLPKYELEALIDGMQMDLVQARYGSFEELKLYCRRVAGVVGCLIARILGFSDGKTLEYADKMGLALQLTNIIRDVGEDARRGRIYLPMEEMQRFDVPASVILQCSPTGNFAELMAFQIKRARETYREAVSLLPDADKKAQKVGLVMAAVYYALLNEIDRDGAQNVLKYKIALPSPRKKRIALKTWLFGFKPRPGTPERA”, the “soluble on expression in E. coli” value is given as “not soluble”. On to “MSFVKKTKNFFGLDGEADPYMEHSDAYYDEPRYEPAPAYSAPRYEEPIYASARPRAARPMPTHIVPVRLLTYSDAAIKVGDPFRDGDAVVFDMSDMHKGEAKRIIDFAAGLCFALRGQMRKLDGRIFALVPESASVDENDLKHAAGLIHLEHHHHHH”, for which the “soluble on expression in E. coli” value is given as “not soluble”. Then “MGSDKIHHHHHHMMPVRQTLSKPDIQLSYLEWNQGQEPLLLLHGLGDHALVWSSLGDYLAADYHIVAPDMRGHGESTKPERDYTFESAIADLEALMDHLGWTSAQIVSHSWTGKLAAIWARQNRKRLRSIILVDPIFIWKMPSLLRLTFPMLYRFLPFLKSMGPFTSHEEAEQQARQLKQYQGWSSLQEQVFQAGIEQKPDGSWGSKFTIAARDEIFEAVMQVPGFTIPLDIQALFIQPEQGLNRQDWQIQPYKTYLKKLRICQVPGNHWPFLTQPETFNQTVAAFLAEHR”, with “not soluble”; and “NRMKLMIVGNTGSGKTTLLQQLMKTKKSDLGMQSATVGIDVKDWPIQIRDKRKRDLVLNVWDFAGREEFYSTHPHFMTQRALYLAVYDLSKGQAEVDAMKPWLFNIKARASSSPVILVGTHLDVSDEKQRKACMSKITKELLNKRGFPAIRDYHFVNATEESDALAKLRKTIINESLNFKIRDQ”, with “soluble”. On to “MRFQYQALLNEHQSQLDRFSSHIVATLDKYAHIPHLISKDKELVDALLSAQNSAQIDITNRYLEQVNEVIQAADTYLIDRFGNTIASSNWNLDRSFIGRNFAWRPYFYLSIAGQKSQYFALGSTSGQRGYYYAYPVIYAAEILGVIVVKMDLSAIEQGWQNKSSYFVATDDHQVVFMSSQPAWLFHSVADLSPAQLNDIRQSQQYLDSPIPSLGWQGDLQAEQSEWRKPEKHWLQDDYIVSSRPLPELALTIRVLSPKIE”, for which the “soluble on expression in E. coli” value was “soluble”. For “MGSDKIHHHHHHMDKLMKICPTREIELQQKAKQLYEEEENRKIAYNAGLVEAEGYCQYTRLKEIIEFAKKCGYKKIGIAFCIGLKREMQTVQKIFEHHGFEVFSVICKNGAMPKSTIGLEASQTISKCSDEVMCNPIGQALFLNEAKVDLNVILGLCVGHDTLAMKYMEAPITTLVVKDRVTGHNPVAAIYNAESYFEKKLFDKDEE”, the “soluble on expression in E. coli” value was “not soluble”. Then “MTKNEIRKYILHKMKNFNKAEKRKADTWLRNQFFATEEYKEANAIALVLSFNHEVDTFSIIEQALMDHKRIFVPKMDYLNHQMTFKEIFNLKDIDVDNKGIYYPTSKGETTNNLDLIVVPGVGFQDDGYRIGYGGGYYDRFLANYQTKTISLLYDFQITSFEPESFDQPVDKLIIYQSALEHHHHHH”, with “soluble”; and “GMLTDMQRDSASSSTVTTEQIVYGALPLTTINEPECRAIAITSINGSATLSGVSGPMGDQTDADLLIQLRGWADAIVVGAETARKENYGPVVLPHGIKNQRQKLGRCGLPKLTLLSKSLYFDFSSELFSPDLPSELSPLVITQQPANNSEQWDQRLQKLIDVGVEVIVAPTSTNPLKIAFDALHARRLKKISIEGGPSVYRQALSLGIVDRLHLTIAPNIICPVESPLFGKISDDSFTTRLVLEMLSSSPNGLIFSRYKVIRDTLGNPTQ”, with “soluble”.

As to “MSLTPWLSIVGISEEGWLALTPIAQQCILQADILVGSDRHFDLLPSLPGAEQWRWGSPFSATITQILERRGQSICILASGDPMCYGVGSLLAQRLPLTELQILPAPSAFSLACSRLGWALPEVETLSLCGRDPALLNALLYPGAKILALSADRSTPATIAEQLCQQGWGSSRLTVLEHLGGPKERKISEIAEHWSQPTIASLNTVAIECHARDRDLIVPPRLTGLPDAAYHHDGQLTKREVRAITLAALAPLPGQLLWDVGAGCGSIGIEWMRSDRRCRAIAIEQHPQRLQIITQNAIALGVPNLQVVAGSAPATLSGLPQPDAIFIGGGVTAPGVLDQCWQALPMGGRLVVNAVTLESEQVVLAGQQRWGGDLIRVAVQRAEPIGRFLGWKSLAPITQWTVKKTALEHHHHHH”, the “soluble on expression in E. coli” value is given as “soluble”.

Regarding “MAFVLDASTAVAWCFDEHHPAADRTLELAKVSEPRAPAILWFELRNAALMGIRRGRVKAEAADGVLARIERIRISIAPLPPAADPIFALAQRHRLTFYDAAYLELAQRERIGLATLDAALVGA”, the “soluble on expression in E. coli” value is “not soluble”. With “SLTLNDKYPFTDEDQAIINSYKAVVDGVSALIGEHCEIVLHSLENIEHSAICIANGHNTNRQVGSPITDLALRSLRNMQSESVSKPYFTRAKGSVLMKSVTIAIRNKTQRIIGLLCININLDVPVSQFLQCFMLTEHTNETSSVNFANSVEDLVAQTIEKTIEEVNADRAVANNTKNRQIVLSLYEKGIFDIKDAINLVAERLDISRHTVYLYIRQIKQEQE”, the “soluble on expression in E. coli” value is listed as “soluble”. The same measure for “MGSDKIHHHHHHMTPYRDNTPHLARDNHLLFTELARDYCLSMPISFKEALDRAQDATGLSMRKLADKAGVSYEQLKKVRQGKSQTTNAEDALKIATAVGVSFEQFMSGEFDASPTISIAGKVGAGAQVPVFDAYEKGDGPQVECPPGIGPHGVVAVEVEGDSMEPVYSAGDLLFYSRNGHDSVPDDVIGYKCVCEDADGMGWVKQVKAGDEPGLFHLISLNPTGANMWNVRLKWAARVRLHWPAEFARKK”: “not soluble”; for “MSLNQSFTQFGDGYASTGTLNIGDVLDIMIWEAPPAVLFGGGLSSMGSGSAQQTKLPEQLVTARGTVSVPFVGDISVVGKTPGQVQEIIKGRLKKMANQPQVMVRLVQNNAANVSVIRAGNSVRMPLTAAGERVLDAVAAVGGSTANVQDTNVQLTRGNVVRTVALEDLVANPRQNILLRRGDVVTMITNPYTFTSMGAVGRTQEIGFSARGLSLSEAIGRMGGLQDRRSDARGVFVFRYTPLVELPAERQDKWIRQGYGSEAEIPTVYRVNMADAHSLFSMQRFPVKNKDVLYVSNAPLAEVQKFLSFVFSPVTSGANSINNLTNEGHHHHHH”: “not soluble”.

These data come from the DeepSol protein solubility set.
